Assay results: patent publication US20210198377A1 (XDCEXPLORER SHANGHAI, published 2021)
Where a chain is given by its changes, count along the chain named.

B1: 37H9C5G2 (antibody, V domains shown)
VH: QVQLQQSDAELVRPGASVKMSCKVSGYTFTDHTIHWMKQRPEQGLEWIGYIYPRDGSGTYNEKFKGKATLTADKSSSTAYMQLNSLTSEDSAVYFCARDGSSHYWYFDVWGTGTTVTVSS
VL: DIQMTQSPASLSASVGETVTITCRASEIIYNYLAWYQQKQGKSPQLLVYNAKTLAEGVPSRFSGSYSGTQFSLNINSLQSEDFGIYYCQHHHDTPLTFGAGTKLDLK
notes: Mouse hybridoma antibody purified from culture supernatant; also called TPBG antibody; lead antibody
B2: 36A10D8B12 (antibody, V domains shown)
VH: DVQLQESGPGMVKPSQSLSLTCTVTGYSITSGYDWHWIRHFPGNKLEWMGYISYSGNTNYNPSLKSRISITHNTSKNHFFLRLNSVTTEDTATYYCARGYGNWDAMDYWGQGTSVTVSS
VL: DIVMTQSQKFMSTSVGDRVSVTCKASQIVDTNVAWYQQKPGQSPKALISSASYRYSGVPDRFTGSGSGTDFTLTISNVQSEDLAEYFCQQYNSYPLTFGAGTKLELT
notes: as for B1
B3: 12B12C7C3 (antibody, V domains shown)
VH: DVQLVESGGGLVQPGGSRKLSCAASGFTFSNFGMHWVRQAPEKGLEWVAYISSGSTSFYYADTVKGRFTISRDNPKNTLFLQMTSLRSEDTAMYYCSRTNSLLRGFFDAWGAGTTVTVSS
VL: DIVLTQSPASLAVSLGQRATISCRASQSVSSSSYTYLHWYQQKPGQPPKLLIKSASNLESGVPARFSGTGSGTDFTLNIHPVEEEDTATYYCQHSWEIPLTFGAGTKLELK
notes: as for B1
B4: 28D4E6A9 (antibody, V domains shown)
VH: DVQLVESGGGLVRPGGSLKLSCAASGFTFSNYVMSWARQSPEKRLEWVAEISTGGSHTYYSDTVTGRFTISRDNAKKALYLEMSSLRSEDTAIYYCIMFYYGSSYSMDYWGQGTSVTVSS
VL: DIQMTQSTSSLSASLGDRITISCRASQDIRNYLNWYQQKPDGTVKLLIYHTSRLHSGVPSRFSGSGSGTDYSLTISNLEQEDIATYFCQQGDTLPLTFGAGTRLELK
notes: as for B1
B5: 5G4H10G5 (antibody, V domains shown)
VH: EVQLVESGGDLVQPGGSLKLFCAASGFTFSTYGLSWVRQTPDKRLELVATITNNDGSAYYPDSVKGRFTISRDKAKNTLFLQMTSLKSEDTAMYYCARETGFGSSYLFDYWGQGTLVTVSA
VL: NIVMTQTPKFLLVSAGDRVTITCKASQSVSNDVAWYQQKPGQSPKLLIYFATNRYTGVPNRFTGSGYGTEFTFTISSVQAEDLAVYFCQQDYSSPTFGGGTKLEIK
notes: as for B1
B6: 103E2E9C2 (antibody, V domains shown)
VH: EVQLQQSGPVLVKPGASVKMSCEASGYSFIDYYMSWVKQSRGRSLEWIGVFNPYSGEIIYNQKFKGKATLTVDKSSSTAYMELSSLTSEDSGVYSCARLRISYYAIDYWGQGTSVAVSS
VL: ENVLTQSPAIMSASPGEKVTMTCRATSSVSSGHFHWYQQKSGASPKVWIYSTSNLASGVPARFSGSGSGTSFSLTISSVEAEDVATYFCQQYSGYPLTFGGGTKLEIK
notes: as for B1
B7: 39A11G5F2 (antibody, V domains shown)
VH: QVQLQQSGAELMKPGASMRLSCKATGYTFTGYWLEWIKRRPGHGLEWIGEILPGRGSTNYNEKFKGKATFTAETSSNTAYMQLTSLTTEDSAIYYCARGGRDFDNWGQGTTLTVSS
VL: DIQMTQSTSSLSASLGDRVTISCSASQGINNHLNWYQQKPDGTVKLLIYYTSSLHSGVPSRFSGSGSGTDYSLTISNLEPEDIAIYYCQQFSKLPYTFGGGTKVEMK
notes: as for B1
B8: 52C9E9F6 (antibody, V domains shown)
VH: QVQLQQSGAELMKPGASVKLSCKATGYTFTGYWIEWIKQRPGHGLEWIGEILPGRGSTDYNEKFKGKATFTADTSSNTAYMQLSSLTTEDSAIYYCTRGRLDFTYWGQGTLVTVSA
VL: B7 VL with S7T, N30R, H32Y, I85T, F91Y, L94V, Y96W, V104L, M106I
notes: as for B1
B9: 99E12C7H1 (antibody, V domains shown)
VH: QIQLVQSGPELKKPGETVKISCKPSGYTFTAYGLSWVKQAPGQGFQWMGWINTYSGVPTYTDDFKGRFAFSLETSAGTASLQITNLKNEDTATYFCARSSIPPFEYWGPGTTLTVSS
VL: SFVMTQSPKFLLVSVGDRVTITCKASQSVSNDVAWYQQKPGQPPRVLIYFASNRYTGVPDRFTGSGYGTDFTFTISTVQAEDLALYFCQQDYSSPWTFGGGTKLEIK
notes: as for B1
B10: 106D5G3D10 (antibody, V domains shown)
VH: EVQLVESGGGLVKPGGSLKLSCAASGFTFSDYGMHWVRQAPEKGLEWVGYISSGTYVVYYADTVKGRFTISRDNAKNTLFLQMTSLRSEDTAIYYCSTYGSNPFDYWGQGTTLTVSS
VL: QLVLTQSPAIMSASPGEKVTITCSATSSVSSMHWFQQKPVTSPKLWIYSTSNLASGVPTRFSGSGSGTSYSLTISRMEAEDAATYYCQQRSGYPPIFTFGSGTKLEIK
notes: as for B1

Each binder was assayed against T1, human TPBG (full length, on cells) (human, UniProt Q13641 32-420) (assay: FACS on CHO-K1-hTPBG cells).
T1 construct: whole, on cells; On transfected HEK293 or CHO-K1 cells; for the tumour lines NCI-H1568 and NCI-H1299 it is the cells' own TPBG; also called hTPBG; 5T4
T1 sequence (looked up): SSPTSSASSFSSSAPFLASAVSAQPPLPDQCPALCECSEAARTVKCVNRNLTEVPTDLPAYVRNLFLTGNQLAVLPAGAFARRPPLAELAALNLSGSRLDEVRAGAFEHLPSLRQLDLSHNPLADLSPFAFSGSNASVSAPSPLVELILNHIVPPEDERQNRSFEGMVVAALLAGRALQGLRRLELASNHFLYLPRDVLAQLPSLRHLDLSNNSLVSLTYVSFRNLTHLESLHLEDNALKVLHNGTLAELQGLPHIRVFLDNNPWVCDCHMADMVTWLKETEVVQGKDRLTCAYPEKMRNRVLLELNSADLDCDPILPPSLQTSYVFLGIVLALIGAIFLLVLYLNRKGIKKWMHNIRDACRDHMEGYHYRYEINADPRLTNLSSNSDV
Text: The stable cell lines CHO-k1-hTPBG, CHO-k1-cTPBG, CHO-k1-mTPBG (i.e. the CHO-k1-hTPBG 3A2F1, CHO-k1-cTPBG 3F13G4 and CHO-k1-mTPBG 3A3 shown in table 7) and CHO-K1 cells were expanded to a 90% of confluency in T-75 cell culture flasks, the culture medium were removed, and cells were then rinsed twice with HBSS buffer (Hanks Balanced Salt Solution, purchased from Invitrogen) and lysed with enzyme-free cell dissociation buffer (Versene solution purchased from Life technology) and harvested. Harvested cells were rinsed with HBSS buffer twice and counted before diluting with HBSS buffer to 2×10⁶ cells /mL, and 10% goat serum blocking buffer was then added, wherein the percentage is the mass percentage. Cells were incubated on ice for 30 min, and then washed twice with HBSS buffer by centrifugation. The harvested cells were resuspended with FACS buffer (HBSS+1% BSA, wherein the percentage is mass percentage) to a concentration of 2×10⁶ cells /mL. 100 μL per well of the cells was aliquoted to 96-well FACS reaction plates, and 100 μL per well of test sample—the purified TPBG antibody obtaining from Embodiment 2 was added before incubating on ice for 2 h. The plate was washed with the FACS buffer twice by centrifugation, and 100 μL per well of fluorescence (Alexa 488) labeled secondary antibody (purchased from Invitrogen) was then added and incubated on ice for 1 h. The plate was washed with the FACS buffer for three times by centrifugation, follow by resuspending in 100 μL of fixation buffer (4% (v/v) paraformaldehyde). Cells were washed with FACS buffer twice after 10 min, follow by resuspending with 100 μL of FACS buffer. The results were measured and analyzed by FACS (FACS Calibur, purchased from BD). Data analysis was performed by software (CellQuest) to obtain mean fluorescence intensity (MFI) of the cells, follow by calculating EC50 value by software (GraphPad Prism) analysis and data fitting. The analysis results were shown in Table 8 and FIGS. 7-10, and data in FIGS. 7-10 show the mean fluorescence intensity (MFI) of cells.

EC50	Binder
0.94 nM	B1
0.94 nM	B2
0.65 nM	B3
0.63 nM	B4
1.75 nM	B5
0.85 nM	B6
2.34 nM	B7
3.27 nM	B8
3.54 nM	B9
1.72 nM	B10

These binders were tested against T2, biotinylated recombinant TPBG protein (Homo sapiens (Human), UniProt Q13641 32-355, Biotinylated; the number and positions of the biotin labels are not stated and the letters do not carry them.) (assay: competitive ELISA; row antibody 5 ug/mL; competitor: coated 28D4E6A9).
T2 sequence: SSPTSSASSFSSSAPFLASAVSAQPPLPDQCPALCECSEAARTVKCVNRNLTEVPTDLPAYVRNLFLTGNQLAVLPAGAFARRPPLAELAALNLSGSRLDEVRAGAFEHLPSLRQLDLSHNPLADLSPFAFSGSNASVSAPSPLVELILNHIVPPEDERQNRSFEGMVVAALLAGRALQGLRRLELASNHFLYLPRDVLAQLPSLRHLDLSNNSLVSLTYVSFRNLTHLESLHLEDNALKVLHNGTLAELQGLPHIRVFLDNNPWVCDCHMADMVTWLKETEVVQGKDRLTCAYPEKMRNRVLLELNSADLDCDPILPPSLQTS
Experimental: (§1) The purified antibodies to be tested were diluted to 1 μg/mL using PBS, and coated with high-adsorption of 96-well microplates at […]. After overnight coating at 4[…], 250 μL of blocking buffer (PBS containing 0.01% (v/v) Tween20 and 1% (w/w) BSA) was added to block coating at room temperature for 1 h, and 0.05 μg/mL of biotinylated recombinant TPBG protein was added to each well. Meanwhile, 5 μg/mL final concentration of competitive antibodies, i.e. the purified antibodies obtained from Embodiment 2 with the clone number of 12B12C7C3, 5G4H10G5, 37H9C5G2, 39A11G5F2, 52C9E9F6, 28D4E6A9, 36A10D8B12, 99E12C7H1, 103E2E9C2 and 106D5G3D10 were added and incubated at 25-37° C. for 1-2 h. The plates were washed three times with plate-washing buffer (PBS containing 0.01% (v/v) Tween20) and HRP (horseradish peroxidase)-labeled streptavidin (purchased from Sigma) was added. After incubating at 37° C. for 0.5 h, the plates were washed three times with plate-washing buffer (PBS containing 0.01% (v/v) Tween20), and 100 μL of TMB substrate was added to each well and the plates were further incubated at room temperature for 30 min prior to adding 100 μL of stop buffer (1.0N HCl) to each well. A₄₅₀ₙₘ values were read using an ELISA microplate reader (SpectraMax 384plus purchased from Molecular Device) and results were shown in FIG. 6. The higher the values of the competition rate, the closer the antigen surface of the two antibodies are.

competition rate	Binder
58%	B1
86%	B2
74%	B3
96%	B4
-1%	B5
95%	B6
0%	B7
17%	B8
38%	B9
1%	B10

Each binder was assayed against T2, biotinylated recombinant TPBG protein (assay: competitive ELISA; row antibody 5 ug/mL; competitor: coated 99E12C7H1).
Experimental: as §1

competition rate	Binder
7%	B1
25%	B2
25%	B3
11%	B4
95%	B5
3%	B6
16%	B7
18%	B8
94%	B9
11%	B10
